Experimental data reported in patent US20180244785A1 (MERRIMACK PHARMACEUTICALS, published 2018).
Several values for one entry are separate records, joined by “and”; a condition that tells them apart may be missing. Equal values may be shown once.

T1: recombinant human FGFR1c Fc fusion (human, UniProt P11362 141-376)
T1 construct: also called FGFR1IIIc; not shown: Fc part of the FGFR-Fc fusion
T1 sequence: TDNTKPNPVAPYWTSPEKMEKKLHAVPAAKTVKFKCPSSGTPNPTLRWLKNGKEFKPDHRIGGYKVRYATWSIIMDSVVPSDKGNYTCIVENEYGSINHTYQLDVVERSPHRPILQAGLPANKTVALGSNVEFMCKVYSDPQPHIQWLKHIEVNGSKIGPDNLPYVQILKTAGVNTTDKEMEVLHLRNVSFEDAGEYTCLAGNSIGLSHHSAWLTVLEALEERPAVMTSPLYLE

T2: recombinant human FGFR3c Fc fusion (human, UniProt P22607 141-372)
T2 construct: also called FGFR3IIIc; not shown: Fc part of the FGFR-Fc fusion
T2 sequence: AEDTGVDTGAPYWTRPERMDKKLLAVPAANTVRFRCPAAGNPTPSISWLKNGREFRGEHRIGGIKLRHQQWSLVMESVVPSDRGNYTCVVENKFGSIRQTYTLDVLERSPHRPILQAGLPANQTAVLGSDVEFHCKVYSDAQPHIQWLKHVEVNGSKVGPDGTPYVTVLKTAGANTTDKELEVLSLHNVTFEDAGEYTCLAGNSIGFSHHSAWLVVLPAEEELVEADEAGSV

T3: recombinant human FGFR4 Fc fusion (human, UniProt P22455 144-369)
T3 construct: 19 used; also called FGFR4c; not shown: Fc part of the FGFR-Fc fusion
T3 sequence: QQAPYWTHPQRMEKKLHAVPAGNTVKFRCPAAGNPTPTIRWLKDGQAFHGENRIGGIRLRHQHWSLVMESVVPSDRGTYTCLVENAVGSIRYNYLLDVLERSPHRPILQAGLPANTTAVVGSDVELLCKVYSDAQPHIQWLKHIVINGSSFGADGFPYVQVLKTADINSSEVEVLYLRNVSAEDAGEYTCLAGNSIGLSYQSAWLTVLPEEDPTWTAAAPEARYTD

T4: soluble FGFR3c receptor protein (human, UniProt P22607 141-372)
T4 sequence: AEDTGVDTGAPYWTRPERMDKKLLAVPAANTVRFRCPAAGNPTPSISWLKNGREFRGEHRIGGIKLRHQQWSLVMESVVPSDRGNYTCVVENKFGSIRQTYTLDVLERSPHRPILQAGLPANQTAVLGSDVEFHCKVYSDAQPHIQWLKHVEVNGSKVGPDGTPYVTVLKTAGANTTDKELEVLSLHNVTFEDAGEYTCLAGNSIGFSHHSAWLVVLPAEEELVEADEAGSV

T5: soluble FGFR4 receptor protein (human, UniProt P22455 144-369)
T5 sequence: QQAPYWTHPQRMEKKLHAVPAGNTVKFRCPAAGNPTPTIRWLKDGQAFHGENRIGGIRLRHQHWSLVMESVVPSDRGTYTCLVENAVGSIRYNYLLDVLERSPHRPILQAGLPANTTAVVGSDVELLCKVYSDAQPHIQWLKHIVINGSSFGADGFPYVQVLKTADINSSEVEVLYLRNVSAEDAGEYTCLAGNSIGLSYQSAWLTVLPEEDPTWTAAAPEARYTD

T6: soluble FGFR1c receptor protein (human, UniProt P11362 141-376)
T6 sequence: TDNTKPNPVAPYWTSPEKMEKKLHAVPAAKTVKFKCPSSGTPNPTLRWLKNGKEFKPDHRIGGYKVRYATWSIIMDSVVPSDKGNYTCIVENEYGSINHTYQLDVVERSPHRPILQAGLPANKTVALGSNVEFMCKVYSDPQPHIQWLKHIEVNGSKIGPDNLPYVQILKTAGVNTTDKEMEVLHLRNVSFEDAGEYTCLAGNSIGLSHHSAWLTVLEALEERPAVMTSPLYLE

T7: 6His-Fc-FGFR4 (human, UniProt P22455 144-369)
T7 construct: not shown: 6His tag and Fc as named in '6His-Fc-FGFR'
T7 sequence: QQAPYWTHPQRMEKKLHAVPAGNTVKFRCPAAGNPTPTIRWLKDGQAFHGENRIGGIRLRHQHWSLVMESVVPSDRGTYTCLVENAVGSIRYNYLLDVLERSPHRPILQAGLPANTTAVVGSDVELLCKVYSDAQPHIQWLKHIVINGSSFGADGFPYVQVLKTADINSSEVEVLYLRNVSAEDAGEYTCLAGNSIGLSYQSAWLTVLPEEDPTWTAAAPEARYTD

T8: 6His-Fc-FGFR1c (human, UniProt P11362 141-376)
T8 construct: not shown: 6His tag and Fc as named in '6His-Fc-FGFR'
T8 sequence: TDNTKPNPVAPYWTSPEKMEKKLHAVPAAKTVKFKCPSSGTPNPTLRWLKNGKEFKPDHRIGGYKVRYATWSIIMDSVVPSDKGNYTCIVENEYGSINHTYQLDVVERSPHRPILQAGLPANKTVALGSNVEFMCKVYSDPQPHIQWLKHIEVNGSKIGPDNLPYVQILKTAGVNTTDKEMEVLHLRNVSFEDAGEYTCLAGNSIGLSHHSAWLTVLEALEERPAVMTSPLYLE


Key:
[1] = molecular target: FGFR1 on tumour cells (UniProt P11362 22-822); assay: cell-based or functional assay
[2] = molecular target: T1, recombinant human FGFR1c Fc fusion; assay: solid phase ELISA on coated FGFR-Fc
Experimental: (§1) For the ELISA assay, the ability of each mAb to cross react with the […] FGF receptors was tested across a concentration curve in order to determine the relative binding across FGFR1-4. FGFR2IIIb was used as a negative control. Black 384-well Maxisorp plates were coated overnight with FGFR-Fc fusions in PBS to 1 ug/ml before washing and blocking with 75 ul/well Pierce Protein Free (PBS) Blocking Buffer for 1 hour at RT. Antibody dilutions were prepared freshly in 1% BSA- PBS+0.05% Tween20 and 25 ul of each antibody was added to wells in duplicate. Plates were incubated at RT for 2 hours, followed by addition of detection antibody at 50 ng/ml in 1% BSA PBS, 0.05% Tween20. ECL substrate (Pierce) was added and plates were read on the EnVision plate reader.

[3] = molecular target: T9, recombinant human FGFR2c Fc fusion (human, UniProt P21802 148-377); assay: solid phase ELISA on coated FGFR-Fc
T9 construct: also called FGFR2IIIc; not shown: Fc part of the FGFR-Fc fusion
Experimental: as §1

[4] = molecular target: T2, recombinant human FGFR3c Fc fusion; assay: solid phase ELISA on coated FGFR-Fc
Experimental: as §1

[5] = molecular target: T3, recombinant human FGFR4 Fc fusion; assay: solid phase ELISA on coated FGFR-Fc
Experimental: as §1

[6] = molecular target: T4, soluble FGFR3c receptor protein; assay: BLI Octet RED96, antibody on anti-hIgG Fc tip
Experimental: (§2) Briefly, the Pall ForteBio Octet RED96 Bio-Layer Interferometry system was used to determine the specificity of anti-FGFR antibodies for FGFR1c, FGFR2c, FGFR3c, and FGFR4. The antibodies and soluble receptor proteins were prepared in PBS at a concentration of 300 nM. First, the candidate antibodies were immobilized on the surface of anti-human IgG Fc biosensor tips for 120 seconds. After immobilization, the biosensors were dipped in PBS solution for 60 seconds (baseline step) to assess assay drift, and determine loading level of antibodies. The baseline step was followed by an association step of 300 seconds wherein the binding interaction between the immobilized antibodies and soluble receptors was measured. Following the association step, the biosensors were dipped into PBS buffer for 600 seconds to measure the dissociation of the bound receptor proteins from the immobilized antibodies. Each binding response was measured and reported real time on a sensorgram trace. For data analysis, a simple 1:1 binding model was used which measures the rate of complex formation of one immobilized antibody and one soluble receptor protein.

[7] = molecular target: T5, soluble FGFR4 receptor protein; assay: BLI Octet RED96, antibody on anti-hIgG Fc tip
Experimental: as §2

[8] = molecular target: T6, soluble FGFR1c receptor protein; assay: BLI Octet RED96, antibody on anti-hIgG Fc tip
Experimental: as §2

[9] = molecular target: soluble FGFR2c receptor protein (human, UniProt P21802 148-377); assay: BLI Octet RED96, antibody on anti-hIgG Fc tip
Experimental: as §2

[10] = molecular target: T7, 6His-Fc-FGFR4; assay: competition ELISA, blocks 6His-Fc-FGFR4 binding to coated FGF2
Experimental: (§3) ELISA plates were coated with 50 ug/ml Heparin Sulfate (HSPG) (Sigma Aldrich) and incubated overnight at room temperature. Plates were then washed extensively with PBS containing 0.05% v/v Tween20 (PBST). Plates were then blocked with 2.5% BSA in PBST for one hour and washed extensively as before. 40-60 μL of FGF1 or FGF2 was then added to each well at 40 μg/ml and allowed to bind at room temperature for 2 hours. Plates were then washed extensively with PBST as before. Stock solutions of each 6His-Fc-FGFR (FGFR1-4) were prepared at 500 ng/ml in 2% v/v BSA-PBST and each antibody was prepared as a 2×-dilution series in 2% v/v BSA-PBST. Antibodies dilution series and 6His-Fc-FGFR1-4 were diluted in a 1:1 fashion and immediately added to the relative wells of the plate and allowed to bind for 2 hours at room temperature. Plates were washed extensively as before with PBST and the remaining fraction of bound 6His-Fc-FGFR was detected using a polyclonal-anti-His-6-HRP conjugated antibody (Abcam) for one hour at room temperature. After extensive washing with PBST, 50 μl of Pierce Chemiluminescent substrate (Thermo Fisher Scientific, Rockford, USA) was added and plates were measured on an Envision plate reader (Perkin Elmer). Raw data was background corrected and plotted using Prism software. […]

[11] = molecular target: T8, 6His-Fc-FGFR1c; assay: competition ELISA, blocks 6His-Fc-FGFR1c binding to coated FGF2
Experimental: as §3

Sequence of soluble FGFR2c receptor protein (P21802 148-377): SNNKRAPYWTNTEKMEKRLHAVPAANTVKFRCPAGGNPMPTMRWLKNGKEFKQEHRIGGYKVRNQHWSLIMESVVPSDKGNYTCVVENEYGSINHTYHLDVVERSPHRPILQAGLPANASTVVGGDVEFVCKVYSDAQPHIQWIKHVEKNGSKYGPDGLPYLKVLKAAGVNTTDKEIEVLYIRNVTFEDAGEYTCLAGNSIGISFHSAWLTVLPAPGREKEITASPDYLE
T9 sequence (P21802 148-377): as above
Sequence of FGFR1 on tumour cells (P11362 22-822): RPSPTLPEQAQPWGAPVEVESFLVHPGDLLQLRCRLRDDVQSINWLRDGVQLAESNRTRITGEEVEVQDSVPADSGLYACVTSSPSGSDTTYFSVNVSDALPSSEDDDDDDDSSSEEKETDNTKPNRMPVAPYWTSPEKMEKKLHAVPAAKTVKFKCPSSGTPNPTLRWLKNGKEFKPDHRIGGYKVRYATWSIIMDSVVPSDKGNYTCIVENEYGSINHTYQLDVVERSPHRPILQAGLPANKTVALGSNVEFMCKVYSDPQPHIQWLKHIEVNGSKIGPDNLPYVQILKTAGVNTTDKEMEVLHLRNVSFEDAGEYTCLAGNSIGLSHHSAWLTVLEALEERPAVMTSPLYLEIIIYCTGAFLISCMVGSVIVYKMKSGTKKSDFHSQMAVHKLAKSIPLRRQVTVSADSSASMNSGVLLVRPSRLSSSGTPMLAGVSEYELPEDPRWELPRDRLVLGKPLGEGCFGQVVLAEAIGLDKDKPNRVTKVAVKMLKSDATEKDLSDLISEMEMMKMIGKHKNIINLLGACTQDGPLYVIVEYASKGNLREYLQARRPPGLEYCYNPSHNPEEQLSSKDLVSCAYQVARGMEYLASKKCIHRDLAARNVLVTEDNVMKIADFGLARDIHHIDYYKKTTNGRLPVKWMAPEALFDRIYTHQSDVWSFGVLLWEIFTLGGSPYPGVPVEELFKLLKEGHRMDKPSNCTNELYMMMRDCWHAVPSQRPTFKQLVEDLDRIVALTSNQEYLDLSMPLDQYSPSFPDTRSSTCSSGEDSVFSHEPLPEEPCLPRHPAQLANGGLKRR

Row | IC50 of pERK inhibition (AlphaScreen SureFire) in NCI-H1581 cells [1] [nM] | EC50 [2] [nM] | EC50 [3] [nM] | EC50 [4] [nM] | EC50 [5] [nM] | Kd [6] | koff [6] | kon [6] | Kd [7] | koff [7] | kon [7] | Kd [8] | kon [8] | Kd [9] | koff [9] | kon [9] | IC50 [10] [nM] | IC50 [11] [nM] | koff [8] [s⁻¹] | Binder
1 | 4.12 | 0.0112 | 0.0147 | 0.129 | 7.56 | 8.42 nM and 8.59 nM and 8.21 nM | 0.00108 s⁻¹ and 0.00105 s⁻¹ and 0.00102 s⁻¹ | 121000 M⁻¹ s⁻¹ and 123000 M⁻¹ s⁻¹ and 124000 M⁻¹ s⁻¹ | 11.2 nM and 7.35 nM and 7.88 nM | 0.00124 s⁻¹ and 0.00091 s⁻¹ and 0.00101 s⁻¹ | 98200 M⁻¹ s⁻¹ and 124000 M⁻¹ s⁻¹ and 128000 M⁻¹ s⁻¹ | 13.7 nM and 4.72 nM and 7.39 nM | 76500 M⁻¹ s⁻¹ and 48900 M⁻¹ s⁻¹ and 44600 M⁻¹ s⁻¹ | 10.3 nM and 11.8 nM and 11.5 nM | 0.00193 s⁻¹ and 0.00234 s⁻¹ and 0.00235 s⁻¹ | 183000 M⁻¹ s⁻¹ and 199000 M⁻¹ s⁻¹ and 205000 M⁻¹ s⁻¹ | 25.7 | 3.35 |  | Ab15 (antibody, human IgG2, kappa, V domains shown, Format in each assay not spelled out; also called FGF#26) VH: EVQLLESGGGVVQPGRSLRLSCAASGFTFSSYAMHWVRQAPGKGLEWVAVISYDGSNKYYADSVKGRFTISRDNSKNTLSLQMNSLRVEDTAIYYCVRGAGRGYTYGPDGFDIWGQGTMVTVSS VL: DIVMTQTPLSLSVTPGQPASISCTSSRSLLHSDGKTYVYWYVQKSGQPPQLLIYELSNRFSGVPDRFSGSGSRTDFTLKISRVEAEDVGVYYCMQYIEAPLTFGGGTKVEIKR
2 | 0.385 | 0.0117 | 0.0224 | 0.0687 | 0.31 | 15.4 nM | 0.00239 s⁻¹ | 154000 M⁻¹ s⁻¹ | 12.5 nM | 0.00169 s⁻¹ | 117000 M⁻¹ s⁻¹ | 14.5 nM | 111000 M⁻¹ s⁻¹ | 6.93 nM | 0.00188 s⁻¹ | 254000 M⁻¹ s⁻¹ | ~7.32 | 3.83 | 0.00165 | Ab60 (antibody, human IgG2, kappa, V domains shown, format in the assays not spelled out) VH: EVQLLESGGGVVQPGRSLRLSCAASGFDFAGYAMHWVRQAPGKGLEWVAVISYDGSNKYYADSVKGRFTISRDNSKNTLSLQMNSLRVEDTAIYYCVRGAGRGLTYGPDGFDIWGQGTMVTVSS VL: DIVMTQTPLSLSVTPGQPASISCTSSRSLLHSDGKTYVYWYVQKSGQPPQLLIYELSNRFSGVPDRFSGSGSRTDFTLKISRVEAEDVGVYYCMQYIEAPLTFGGGTKVEIKR
